Data: patent US20120027722A1

B1: AP33 antibody (as used in Example 2) (antibody, V domains shown)
VH: EVQLQESGPSLVKPSQTLSLTCSVTGDSITSGYWNWIRKFPGNKLEYMGYISYSGSTYYNLSLRSRISITRDTSKNQYYLQLNSVTTEDTATYYCALITTTTYAMDYWGQGTSVTVS
VL: NIVLTQSPVSLAVSLGQRATISCRASESVDGYGNSFLHWFQQKPGQPPKLLIYLASNLNSGVPARFSGSGSRTDFTLTIDPVEADDAATYYCQQNNVDPWTFGGGTKLEIK
B2: chimeric AP33 antibody (Vh/Vl) (antibody, V domains shown)
VH: B1 VH
VL: B1 VL

Tests used:
[1] = biological target: HCV E1E2 glycoproteins, genotype 1b (Con1) (Hepatitis C virus genotype 1b (Con1)) (UniProt Q9WMX2); assay: cell-based or functional assay
[2] = biological target: HCV E1E2 glycoproteins, genotype 2a (J6) (Hepatitis C virus genotype 2a (J6)); assay: cell-based or functional assay
Peptide D3 = conditions: remark: other sources report otherwise

Chain of HCV E1E2 glycoproteins, genotype 1b (Con1) (Hepatitis C virus genotype 1b (Con1)) (Q9WMX2 192-383 limits assumed, chain 1 of 2): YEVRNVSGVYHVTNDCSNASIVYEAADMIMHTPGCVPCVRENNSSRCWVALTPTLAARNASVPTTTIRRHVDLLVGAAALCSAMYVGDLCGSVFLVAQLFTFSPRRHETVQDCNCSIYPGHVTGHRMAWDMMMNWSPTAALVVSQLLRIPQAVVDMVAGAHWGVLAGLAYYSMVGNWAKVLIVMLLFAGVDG
Chain of HCV E1E2 glycoproteins, genotype 1b (Con1) (Hepatitis C virus genotype 1b (Con1)) (Q9WMX2 384-746 limits assumed, chain 2 of 2): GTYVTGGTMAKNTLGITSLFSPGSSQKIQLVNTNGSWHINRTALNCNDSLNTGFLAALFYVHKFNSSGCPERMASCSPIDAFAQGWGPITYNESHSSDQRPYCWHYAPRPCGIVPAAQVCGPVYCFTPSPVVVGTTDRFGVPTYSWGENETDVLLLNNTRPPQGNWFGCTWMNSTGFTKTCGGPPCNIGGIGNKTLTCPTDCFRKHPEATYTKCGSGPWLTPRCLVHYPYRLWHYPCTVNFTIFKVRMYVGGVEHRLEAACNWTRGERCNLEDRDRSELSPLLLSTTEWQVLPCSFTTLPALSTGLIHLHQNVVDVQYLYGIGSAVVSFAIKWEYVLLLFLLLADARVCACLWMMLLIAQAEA

Binder	EC50, neutralization of Con1 HCVpp entry (Huh-7.5, luciferase) [1] [µg/mL]	EC50, neutralization of J6 HCVpp entry (Huh-7.5, luciferase) [2] [µg/mL]	EC50 (read off the curve) (Peptide D3) [µg/mL]
B1	1.42	2.07	
B2			0.02
